Results: US20150044245A1, “PARTIAL MHC CONSTRUCTS AND METHODS OF USE” (Oregon Health & Science University, priority 2012, published 2015)
Like-named read-outs stand apart in the source and are kept apart here.

Key:
[1] = target: T1, CD74 (Mus musculus, UniProt P04441); experiment: Direct binding of FITC-labeled constructs to immuno-adsorbed CD74; settings: FITC-labeled ligand, immuno-adsorbed CD74, 4 hours at 4° C., 1% CHAPS; read-out: CD74 One binding site KD
T1 construct: DR*1501-Tg splenocytes were biotinylated and lysed as described above and CD74 was immunoprecipitated overnight; endogenous in cells; host or cells: splenocytes of DR*1501-Tg mice (surface-biotinylated, lysed in 1% CHAPS/TEN; CD74 captured on Protein L / ln-1 beads)
T1 sequence (P04441 1-215 isoform P04441-2): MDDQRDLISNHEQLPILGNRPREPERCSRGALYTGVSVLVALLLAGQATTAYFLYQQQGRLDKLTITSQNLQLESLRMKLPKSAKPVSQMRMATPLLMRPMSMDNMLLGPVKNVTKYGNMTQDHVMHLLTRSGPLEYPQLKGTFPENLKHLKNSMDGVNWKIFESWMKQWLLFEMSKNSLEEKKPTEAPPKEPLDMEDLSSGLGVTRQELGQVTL
Experimental: (§1) In order to test ligand binding to the separate components of the RTL receptor, DR*1501-Tg splenocytes were biotinylated and lysed as described above and CD74 was immunoprecipitated overnight at 4° C. with the anti-CD74 monoclonal antibody ln-1. Immune complexes (Protein L-beads/ln-1/CD74) were analyzed for their ability to bind FITC-labeled pDR2RTL constructs by performing a direct binding saturation with increasing concentration of the different constructs (0 to 10 nM). Binding was carried out for 4 hours at 4° C. with gentle shaking and in the presence of 1% CHAPS in TEN buffer. Afterwards the complexes were washed thoroughly with 1% CHAPS/TEN and once with only TEN buffer to remove excess detergent. Bound proteins were eluted in 2% SDS electrophoresis sample buffer at 90° C. for 6 to 8 minutes and beads were sedimented. After the supernatant was collected and proteins separated using 10-20% SDS-PAGE, the gel was scanned for FITC chromophore and quantified by densitometry. Ligand concentration was plotted versus the fluorescence intensity of the bands and the curve generated was fit to one or two binding sites with the GraphPad Prism® Software. […] Direct binding to saturating concentrations of the pDR2 constructs was carried out and analyzed as described above.

[2] = target: MHC class II from DR*1501-Tg mice; experiment: Direct binding of FITC-labeled constructs to MHC class II immuno-adsorbed from CD74-depleted lysate; set-up: species or system mouse; settings: FITC-labeled ligand, read-out: MHC Class II One binding site KD
Experimental: as §1

[3] = target: T1, CD74; experiment: Coimmunoprecipitation of FITC-labeled constructs with CD74; format: binding; settings: FITC-labeled construct, bead-immunopurified CD74
Experimental: For immunoprecipitation experiments, antibody TU39 (BD Pharmingen) was pre-bound to bead-conjugated Protein A for 2 hours in ice-cold TEN-TX100 or TEN-CHAPS followed by RTL binding to these complexes. Lysate (previously pre-cleared with bead-conjugated Protein A) was added to the tube and binding was carried out overnight at 4° C. with soft orbital shaking Samples were extensively washed with TEN buffer and the appropriate detergent. For CD74 immunoprecipitation, ln-1 mAb was adsorbed to bead-conjugated Protein L as described above and pre-cleared lysate was added to this mixture. When necessary, bound material was eluted by boiling the immune complexes in electrophoresis sample buffer and analyzed by SDS-PAGE and Western blot.
For direct binding of RTL constructs, Protein-L/ln-1/CD74 complexes were prepared as described above. Labeled ligand constructs were incubated for 4 hours at 4° C. in 1% CHAPS in TEN buffer and free ligand was removed by extensive washing. Elution of bound proteins was carried out as described above and the eluate was analyzed by SDS-P AGE. […] In all assays involving fluorescent labeling, the chromophore was detected by scanning at the appropriate wavelength using a Molecular Imager® FX scanner (Bio-Rad) and the fluorescence intensity was determined using Quantity One® software (Bio-Rad) associated with the imager.

[4] = tested on: CD80; experiment: CD80 expression on CD11b+ monocytes from spinal cord of treated EAE mice; format: in vivo, mouse; settings: day 15 post-immunization
Experimental: EAE was induced in mice by immunization with mMOG-35-55. At disease onset, the mice were treated with one of the following constructs: (i) pDR2 with covalently bound mMOG-35-55 (100 μg), (ii) pDR2 without peptide (1000 μg), (iii) DR-α1 (750 μg), or (iv) vehicle alone. The constructs were administered subcutaneously for two sequential days. On day 15 post-immunization, mice were sacrificed and spinal cords were harvested and pooled for each group. Isolated cells were stained for CD74, CD11b, CD80, ICAM, and HLA-DR expression and analyzed by FACS.

[5] = tested on: mMOG-35-55-induced EAE in DR*1501-Tg mice; settings: for effect on EAE (in words): mMOG-35-55-induced EAE
[6] = tested on: hMOG-35-55-induced EAE in DR*1502-Tg mice; settings: treated at disease onset
Experimental: In addition, mice were given pertussis toxin (Ptx) from List Biological Laboratories (Campbell, Calif.) on days 0 and 2 post-immunization (75 ng and 200 ng per mouse, respectively). Immunized mice were assessed daily for clinical signs of EAE on a 6 point scale of combined hind limb and forelimb paralysis scores. For hind limb scores: 0=normal; 0.5=limp tail or mild hind limb weakness (e.g., a mouse cannot resist inversion after a 90° turn of the base of the tail); 1=limp tail and mild hind limb weakness; 2=limp tail and moderate hind limb weakness (e.g., an inability of the mouse to rapidly right itself after inversion); 3=limp tail and moderately severe hind limb weakness (e.g., inability of the mouse to right itself after inversion and clear tilting of hind quarters to either side while walking); 4=limp tail and severe hind limb weakness (hind feet can move but drag more frequently than face forward); 5=limp tail and paraplegia (no movement of hind limbs). Front limb paralysis scores are either 0.5 for clear restriction in normal movement or 1 for complete forelimb paralysis. The combined score is the sum of the hind limb score and the forelimb score.
(§2) Rarely, there was mortality of HLA-DR2 mice with severe EAE and in these cases, mice were scored as a 6 for the remainder of the experiment. Mean EAE scores and standard deviations for mice grouped according to initiation of RTL or vehicle treatment were calculated for each day and summed for the entire experiment (Cumulative Disease Index, CDI, represents total disease load). Daily mean scores were analyzed by a two-tailed Mann Whitney U test for nonparametric comparisons between vehicle and pDR2 treatment groups. Mean CDIs were analyzed by a one way ANOVA with Tukey post-test, and a nonparametric one way Kruskal-Wallis ANOVA with Dunn's multiple comparisons post-test to confirm significance between all groups.
(§3) pDR2 constructs (Table 3) were injected subcutaneously daily for 5 days at the indicated doses to treat EAE induced in HLA-DR2-Tg and MBP-TCR/DR2-Tg mice and clinical signs were scored as described above. […] Fab1B11 alone in vehicle was run as a negative control.

[7] = tested on: MBP-85-99-induced EAE in MBP-TCR/DR2-Tg mice
Experimental: HLA-DR2 positive male and female mice between 8 and 12 weeks of age were immunized subcutaneously at four sites on the flanks with 0.2 ml of an emulsion of 200 μg immunogenic peptide and complete Freund's adjuvant containing 400 μg of heat-killed Mycobacterium tuberculosis H37RA (Difco, Detroit, Mich.) (Vandenbark et al, J Immunol 171:127-133, 2003; Buenafe et al, Immunology 130:114-124, 2010). In addition, mice were given pertussis toxin (Ptx) from List Biological Laboratories (Campbell, Calif.) on days 0 and 2 post-immunization (75 ng and 200 ng per mouse, respectively). Immunized mice were assessed daily for clinical signs of EAE on a 6 point scale of combined hind limb and forelimb paralysis scores. For hind limb scores: 0=normal; 0.5=limp tail or mild hind limb weakness (e.g., a mouse cannot resist inversion after a 90° turn of the base of the tail); 1=limp tail and mild hind limb weakness; 2=limp tail and moderate hind limb weakness (e.g., an inability of the mouse to rapidly right itself after inversion); 3=limp tail and moderately severe hind limb weakness (e.g., inability of the mouse to right itself after inversion and clear tilting of hind quarters to either side while walking); 4=limp tail and severe hind limb weakness (hind feet can move but drag more frequently than face forward); 5=limp tail and paraplegia (no movement of hind limbs). Front limb paralysis scores are either 0.5 for clear restriction in normal movement or 1 for complete forelimb paralysis. The combined score is the sum of the hind limb score and the forelimb score.
as §2, §3

[8] = DR*1501-Tg mice, mMOG-35-55/CFA/Ptx EAE, treated at disease onset
[9] = MBP-TCR/DR2-Tg mice, treated for five days following onset

B1: RTL302-5D: Human HLA DR2 (DRB1*1501/DRA*0101) β1α1 domains (V102D, I104D, A106D, F108D, L110D), no peptide (protein)
chain: MGDTRPRFLWQPKRECHFFNGTERVRFLDRYFYNQEESVRFDSDVGEFRAVTELGRPDAEYWNSQKDILEQARAAVDTYCRHNYGVVESFTVQRRVIKEEHDIDQDEDYDNPDQSGEFMFDFDGDEIFHVDMAKKETVWRLEEFGRFASFEAQGALANIAVDKANLEIMTKRSNYTPITN
Kd [1]: > 10 nM | Kd [2]: > 10 nM | coimmunoprecipitation with CD74 (in words) [3]: also coimmunoprecipitated with CD74, but at much lower levels | CD80 expression (in words) [4]: decreased | CDI ([5]; 100 μg x 5 (Table 11)): 43.1 ± 10.6 | Incidence ([5]; 100 μg x 5 (Table 11)): 9/9 | Mortality ([5]; 100 μg x 5 (Table 11)): 0 | Onset ([5]; 100 μg x 5 (Table 11)): 11.7 ± 1.1 | Peak ([5]; 100 μg x 5 (Table 11)): 3.3 ± 0.9 | CDI ([5]; 1 mg x 2 (Table 11)): 34.2 ± 6.2 | Incidence ([5]; 1 mg x 2 (Table 11)): 3/3 | Mortality ([5]; 1 mg x 2 (Table 11)): 0 | Onset ([5]; 1 mg x 2 (Table 11)): 9.0 ± 0.0 | Peak ([5]; 1 mg x 2 (Table 11)): 2.8 ± 0.3 | Incidence [5, 8]: 9/9 | Onset [5, 8]: 11.7 ± 1.1 | Mortality ([5]; DR*1501-Tg mice, treated at disease onset): 0 | CDI ([5]; cumulative disease index, DR*1501-Tg mice, treated at disease onset): 42.9 ± 10.7 | effect on EAE (in words) ([5]; listed as pDR2/no peptide): significant reduction of daily and cumulative EAE scores compared to treatment with vehicle | effect on EAE (in words) ([5]; listed as pDR2 without peptide): lower than those treated with vehicle alone | Peak ([5]; peak clinical EAE score, DR*1501-Tg mice, treated at disease onset): 3.3 ± 0.9 | CDI ([6]; cumulative disease index): 36.8 ± 7.1 | Incidence ([6]; hMOG-35-55/CFA/Ptx EAE): 6/6 | Onset ([6]; hMOG-35-55/CFA/Ptx EAE): 15.0 ± 1.7 | Peak ([6]; peak clinical EAE score): 2.9 ± 0.5 | Mortality [6]: 0 | effect on EAE (in words) ([7]; MBP-85-99-induced EAE): ineffective at treating EAE | CDI [7, 9]: 43.3 ± 12.0 | Incidence [7, 9]: 6/6 | Mortality [7, 9]: 0 | Onset [7, 9]: 17.5 ± 5.0 | Peak [7, 9]: 3.7 ± 0.8
